Measurements as given in patent publication US6710030B1, “Contortrostain (CN) and methods for its use in preventing metastasis and other conditions” (University of Southern California, priority 1993, dated 2004).
“Also recorded” adds a separate entry of the source. Read-outs that look alike come from different tables or passages of the source.

Experiments:
Solubility in water = assay type: physicochemical
Description: CN may be administered by a variety of heretofore known means suitable for delivery thereof into the blood stream in substantial amounts. Intravenous administration of CN in a suitable liquid vehicle or excipient is presently contemplated as the preferred route of administration. […] Alternatively, CN may be administered orally (in the form of tablets or capsules formulated with a suitable binder or excipient material, or in the form of aqueous or oily suspensions, solutions, emulsions, syrups or elixirs) or as a parenteral suspension. As is well known in the art, adjuvants such as local anesthetics, preservatives, buffering agents, lubricants, wetting agents, colorants, flavorings, fillers and diluents may suitably be included in any of these formulations.

[1] = tested on: KSY-1 Kaposi's sarcoma cells; assay: Phosphotyrosine immunoblot, KSY-1 Kaposi's sarcoma cells; assay type: cell-based; conditions: data not shown
MDA-MB-435 tumor on CAM = assay: MDA-MB-435 tumor induced angiogenesis on chick embryo chorioallantoic membrane (CAM); assay type: in vivo
Procedure: MDA-MB-435 tumor masses were inoculated on CAM of 10-day chick embryos. CN at various dosages were injected intravenously into CAM on day 2 post-inoculation. […] Chick embryo is immunodeficient, and thus allows the growth of implanted MDA-MB-435 tumor. The embryos are incubated at 37° C. with humidity at 60%. CN at various dosages was injected intravenously into CAM on day 2 post-inoculation. […] On the top (FIG. 16A) is the control embryo. The vessels are distributed in a convergent manner with the tumor mass in the center. In the middle (FIG. 16B) is the CAM treated with 20 μg of CN. On the bottom (FIG. 16C) is the CAM treated by 150 μg of CN.

canine PRP = assay: ADP-induced platelet aggregation in canine PRP; assay type: cell-based; conditions: 20 μM ADP
Procedure: Column fractions obtained during purification were assayed for activity using fresh human platelet rich plasma (PRP) prepared from blood obtained from human volunteers who had had no medication for at least two weeks. Blood (36 ml) was drawn into 4 ml of 0.1 M citrate and centrifuged at 150×g for 20 minutes. The supernatant, PRP, was removed and the remaining blood was centrifuged at 10,000 RPM to obtain platelet poor plasma (PPP). Platelet counts were adjusted to 250,000 platelets/μl using a Coulter counter. A Helena four channel aggregometer was used to monitor platelet aggregation. Inhibition of ADP-induced platelet aggregation was monitored at 37° C. by adding venom fractions one minute prior to the addition of ADP (10-20 μM final concentration). […] Rabbit and canine PRP was prepared by the same procedure and used in the studies described below.
CN inhibited ADP-induced platelet aggregation in human, canine, and rabbit PRPs (FIG. 6). Empty circles represent human platelet rich plasma, solid circles represent canine PRP, and empty triangles represent rabbit PRP. Varying concentration of CN were preincubated for one minute with PRP prior to the addition of ADP.

[2] = tested on: human fibrosarcoma (HT-1080) cells; conditions: cited from earlier work
MDA-MB-435 tumor = assay: Orthotopic MDA-MB-435 breast cancer metastatic model in nude mice; assay type: in vivo
Procedure: A spontaneous (orthotopic) metastatic model of nude mice has been established by implantation of MDA-MB-435 cells (5×10^5 in 0.1 ml) in the mammary fat pads (mfp). Palpable tumors appeared by the 10th day post-implantation. Daily injections of CN into the tumor masses of each of the groups arc carried out, started at the 14th day post-implantation. By the 8th week post-implantation, tumors were removed. The animals were allowed to survive for 2 more weeks without CN administration. The animals were then sacrificed and lung metastases were carefully examined. […] The volumes of tumor masses (mean±S.D.) of control (dark bars), low-dosage (0.5 μg/day, gray bars), and high-dosage (5 μ/day, light gray bars) CN-treated group are shown. The seven clusters of bars from left to right represent the data of pre-injection (PI, 14th day post-implantation) and the 1st through 6th week of injection. Student t-tests were employed to test the significance of differences. *and** indicate P<0.05 and p<0.01, respectively.

canine platelets = conditions: cited from earlier work
OVCAR-5 cells = assay: Invasion of OVCAR-5 cells through Matrigel, modified Boyden chamber; assay type: cell-based, human; conditions: 1000 nM
Procedure: Modified Boyden chambers were employed to measure invasion. Filters of 12 mm Boyden chamber with 12 μm pore size (Corning Costar, Cambridge, Mass.) were coated with 1:50 dilution of Matrigel in serum free medium. Cells (2.5×10^5 cells in 200 μl of medium) pre-treated with contortrostatin, antibodies against different integrins, or vehicle (control), were applied to the upper wells. HT1080 conditioned medium was added to the bottom well. The cells were incubated at 37° C. for 8 hr., at which point cells on the top side of the membrane were removed with a wet cotton swab. Cells which invaded through the filter membrane were fixed and stained with Diff-Quik™ staining kit (Dade Diagnostics of P. R. Inc., Aguada, Puerto Rico). The membranes were removed from the holder, and were mounted on slides. Migration was quantitated by determining the number of cells in five randomly selected high power vision field using a microscope. Each inhibitor concentration was tested in duplicate, and the experiments were repeated three times to confirm results.

[3] = tested on: human melanoma M24 met cells; assay: M24 met cell adhesion to extracellular matrix proteins; assay type: cell-based
Description: The compositions of the present invention also have utility in inhibiting metastasis in melanoma, carcinoma and sarcoma patients. […] Thus, methods and compositions for preventing metastases in melanoma, carcinoma and sarcoma patients are also contemplated as within the scope of the present invention.

B1: contortrostatin (protein)
chain: DAPANPCCDAATCKLTTGSQCADGLCCDQCKFMKEGTVCRRARGDDLDDYCNGISAGCPRNPFHA
For B1, the solubility (Solubility in water) was “soluble in water”, the “tyrosine phosphorylation of 120-140 kDa proteins” value [1] was “also observed” and the “tumor mass on CAM” value (MDA-MB-435 tumor on CAM; 20 μg of CN) was “smaller than that on control CAM”. The “tumor induced angiogenesis (vessels)” value (MDA-MB-435 tumor on CAM; 20 μg of CN intravenously) was “thinner and less dense than control”, the “tumor mass on CAM” value (MDA-MB-435 tumor on CAM; 150 μg of CN) was “necrotic tumor mass with volume significantly smaller than control and low dose CN” and the “tumor induced angiogenesis (vessels)” value (MDA-MB-435 tumor on CAM; 150 μg of CN intravenously) was “the vessels are even thinner and the convergent distribution pattern disappears completely”. For the same molecule, the “IC50 of ADP-induced canine platelet aggregation” value (canine PRP) was 1.8 µg/mL, the “Inhibition of HT1080 cell binding to fibronectin” value ([2]; CN at 1 μg/ml) was 89% and the “Inhibition of HT1080 cell binding to fibronectin” value ([2]; CN at 5 μg/ml) was 85%. The “# of nodules in lung (median)” value (MDA-MB-435 tumor; 5 μg/day) was 4.5, the “Mean size of relapse tumor” value (MDA-MB-435 tumor; 5 μg/day) was 48.7 ± 10.5 mm^3 and the In situ relapse (MDA-MB-435 tumor; 5 μg/day, animals with/total) was 2/6. For the same molecule, the “Metastasis incidence, Other Organs” value (MDA-MB-435 tumor; 5 μg/day, chest wall, mediastinum, diaphragm, pleurae) was 2/6, the “growth of the tumor (tumor mass volume)” value (MDA-MB-435 tumor; daily local injection into tumor) was “substantially inhibited the growth rate of the tumor; also recorded: significantly smaller” and the inhibition of metastasis (MDA-MB-435 tumor; high dose CN group versus control) was over 90%. For the same molecule, the “mean weight of tumors” value (MDA-MB-435 tumor; high-dose CN (5 μg/day), P<0.05) was “significantly lower than control group”, the “bleeding at the injection sites” value (MDA-MB-435 tumor; mouse, in vivo) was “Some bleeding at the injection sites” and the spontaneous hemorrhage (MDA-MB-435 tumor; mouse, in vivo) was “no spontaneous hemorrhage”. For the same molecule, the “toxicity in chronic experiment” value (MDA-MB-435 tumor; mouse, in vivo) was “not toxic”, the “50% inhibition (IC50) of platelet aggregation, canine platelets” value (canine platelets) was 2.2 µg/mL and the “invasion of OVCAR-5 cells through Matrigel” value (OVCAR-5 cells) was “almost completely inhibited invasion”. The “M24 met cell adhesion to fibronectin and vitronectin” value [3] was “inhibit”.
